From paper PMC11199421 come the findings set out here.

This experiment addresses Phospholipase A1 (PlaA1) from Serratia marcescens, purified (Serratia marcescens). In words: SPR; Biacore T200; PlaA1 as ligand (diluted to 20 µg/mL), ∆N27 PlaS as analyte at 0, 0.156, 0.3125, 0.625, 1.25, 2.5 and 5 µM.

In turn, “N-terminal truncated PlaS (∆N27 PlaS) from Serratia marcescens, purified (domain or fragment)” registered an equilibrium dissociation constant (Kd) of 8.49 nM, a koff of 1.26e-05 s⁻¹ and a kon of 1480 M⁻¹ s⁻¹.
